{
  "source": "paper PMC10148159",
  "about": "“Visualizing the coordination of apurinic/apyrimidinic endonuclease (APE1) and DNA polymerase β during base excision repair”",
  "binders": {"B1": {"name": "undamaged DNA 25-mer (dsDNA)", "DNA 1": "TGTGTGGAATACAGTGAGCGCAACG", "DNA 2": "CGTTGCGCTCACTGTATTCCACACA"}, "B2": {"name": "1-nt gap 25-mer (dsDNA)", "DNA 1": "TGTGTGGAATACAGTGAGCGCAACG", "DNA 2": "CGTTGCGCTCA", "DNA 3": "TGTATTCCACACA", "modifications": "5'-phosphate on 13-mer"}, "B3": {"name": "3' nick 25-mer (dsDNA)", "DNA 1": "TGTGTGGAATACAGTGAGCGCAACG", "DNA 2": "CGTTGCGCTCAC", "DNA 3": "TGTATTCCACACA", "modifications": "5'-phosphate on 13-mer; 3'-OH on 12-mer"}},
  "key": {"[1]": {"molecular_target": "T1, APE1 (Homo sapiens, UniProt P27695 1-318)", "assay": "single-molecule TIRF; 2.5 mM EDTA; mean lifetime T2 22.8 s; 50 mM Hepes pH 7.4, 150 mM NaCl, 0.1 mg/ml BSA, 0.8% glucose, 2.5 mM EDTA, ~10 mM Trolox, catalase 0.04 mg/ml, glucose oxidase 1 mg/ml; room temperature; protein 0.1 nM (binary) or 1.5 nM each (ternary)", "conditions": "protein: recombinant; tags: Cy3 NHS ester dye (about 2.1-2.4 labels per protein); label: 5'-biotin on strand 1 (immobilized); blunt"}, "[2]": {"molecular_target": "T2, DNA polymerase beta (Pol β) (Homo sapiens, UniProt P06746 1-335)", "assay": "single-molecule TIRF; 2.5 mM EDTA; mean lifetime T2 19.8 s; 50 mM Hepes pH 7.4, 150 mM NaCl, 0.1 mg/ml BSA, 0.8% glucose, 2.5 mM EDTA, ~10 mM Trolox, catalase 0.04 mg/ml, glucose oxidase 1 mg/ml; room temperature; protei"}, "[3]": {"molecular_target": "T1, APE1", "assay": "single-molecule TIRF; 2.5 mM EDTA; mean lifetimes T2 4.3 s, T3 30.9 s; 50 mM Hepes pH 7.4, 150 mM NaCl, 0.1 mg/ml BSA, 0.8% glucose, 2.5 mM EDTA, ~10 mM Trolox, catalase 0.04 mg/ml, glucose oxidase 1 mg/ml; room temperature; protein 0.1 nM (binary) or 1.5 nM each (ternary)", "conditions": "protein: recombinant; tags: Cy3 NHS ester dye (about 2.1-2.4 labels per protein); label: 5'-biotin on strand 1 (immobilized); blunt outer ends; 1-nt gap opposite G of template"}, "[4]": {"molecular_target": "T2, DNA polymerase beta (Pol β)", "assay": "single-molecule TIRF; 2.5 mM EDTA; mean lifetimes T2 7.4 s, T3 33.7 s; 50 mM Hepes pH 7.4, 150 mM NaCl, 0.1 mg/ml BSA, 0.8% glucose, 2.5 mM EDTA, ~10 mM Trolox, catalase 0.04 mg/ml, glucose oxidase 1 mg/ml; room temperature; protei"}, "[5]": {"molecular_target": "T1, APE1", "assay": "single-molecule TIRF; 2.5 mM EDTA; mean lifetime T2 12.4 s; 50 mM Hepes pH 7.4, 150 mM NaCl, 0.1 mg/ml BSA, 0.8% glucose, 2.5 mM EDTA, ~10 mM Trolox, catalase 0.04 mg/ml, glucose oxidase 1 mg/ml; room temperature; protein 0.1 nM (binary) or 1.5 nM each (ternary)", "conditions": "protein: recombinant; tags: Cy3 NHS ester dye (about 2.1-2.4 labels per protein); label: 5'-biotin on strand 1 (immobilized); blunt outer ends; nicked"}},
  "data": [
    {"binder": "B1", "values": [
      {"measurement": "binding result", "setting": "[1]", "result": "binds"}
    ]},
    {"binder": "B2", "values": [
      {"measurement": "binding result", "setting": "[2]", "result": "binds"},
      {"measurement": "binding result", "setting": "[3]", "result": "binds"}
    ]},
    {"binder": "B3", "values": [
      {"measurement": "binding result", "setting": "[4]", "result": "binds"},
      {"measurement": "binding result", "setting": "[5]", "result": "binds"}
    ]}
  ]
}
